Reference: paper doi:10.1101/2025.09.11.675549, “CCDC103-mediated assembly of the R2C complex links RUVBL1-RUVBL2 to Primary Ciliary Dyskinesia” (bioRxiv, 2025)
Values belong to the binder of their own block, whether it stands above or below them.

Key:
[1] = target: T1, RUVBL1-RUVBL2-strep complex (6XHIS-RUVBL1-RUVBL2-strep) (human, UniProt Q9Y265 1-456; Q9Y230 1-463); assay: pull-down; RUVBL1-RUVBL2-strep held on Streptavidin Mag Sepharose beads, full-length CCDC103 as prey; 50mM HEPES pH 7.5, 140mM NaCl, 0.001% Tween 20; eluted with 2.5mM desthiobiotin; SDS-PAGE; settings: both partners purified
T1 construct: RUVBL1 (RuvB like 1), human, UniProt Q9Y265; RUVBL2 (RuvB like 2), human, UniProt Q9Y230; also called RUVBL1-RUVBL2 complex; hetero-hexameric ring; source: E. coli Rosetta (DE3) pLysS (pRSETA and pCDF Duet 1), purified by a previously defined protocol; not shown: Strep, C-terminal, kept; copies: 3 + 3
T1 sequence (Q9Y265 whole entry, chain 1 of 2): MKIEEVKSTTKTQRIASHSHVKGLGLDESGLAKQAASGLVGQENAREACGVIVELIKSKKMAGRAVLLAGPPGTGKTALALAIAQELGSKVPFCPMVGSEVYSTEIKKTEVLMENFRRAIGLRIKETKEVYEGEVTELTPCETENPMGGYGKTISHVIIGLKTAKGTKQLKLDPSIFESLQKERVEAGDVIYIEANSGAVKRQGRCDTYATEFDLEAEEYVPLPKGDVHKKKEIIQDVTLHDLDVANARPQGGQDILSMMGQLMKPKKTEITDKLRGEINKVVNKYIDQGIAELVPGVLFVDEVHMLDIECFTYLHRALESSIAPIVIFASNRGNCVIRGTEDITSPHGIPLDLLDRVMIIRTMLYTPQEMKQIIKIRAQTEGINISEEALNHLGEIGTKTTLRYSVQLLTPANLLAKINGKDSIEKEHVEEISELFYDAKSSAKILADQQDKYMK
T1 sequence (Q9Y230 whole entry, chain 2 of 2): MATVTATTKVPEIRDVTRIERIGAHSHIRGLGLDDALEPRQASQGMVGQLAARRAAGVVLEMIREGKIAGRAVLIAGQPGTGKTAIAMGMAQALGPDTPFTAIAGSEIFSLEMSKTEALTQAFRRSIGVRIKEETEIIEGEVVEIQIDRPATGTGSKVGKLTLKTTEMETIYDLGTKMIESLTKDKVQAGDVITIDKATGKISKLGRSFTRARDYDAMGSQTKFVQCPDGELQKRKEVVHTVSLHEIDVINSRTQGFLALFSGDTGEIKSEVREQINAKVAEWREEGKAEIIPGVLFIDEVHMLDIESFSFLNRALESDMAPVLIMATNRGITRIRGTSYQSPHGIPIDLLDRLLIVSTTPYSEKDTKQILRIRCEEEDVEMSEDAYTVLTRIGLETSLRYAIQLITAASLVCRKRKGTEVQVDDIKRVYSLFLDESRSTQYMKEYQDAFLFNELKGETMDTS

[2] = target: T1, RUVBL1-RUVBL2-strep complex …; assay: pull-down; 10 uM GST-CCDC103 RBD and 10 uM RUVBL1-RUVBL2 on GST beads; 50mM HEPES pH 7.5, 140mM NaCl, 0.001% Tween 20; 45 min at 4 C; three washes; SDS-PAGE; settings: both partners purified

binding result [1]: binds
B1: full-length CCDC103 (natural protein, human, UniProt Q8IW40 1-242, looked up)
chain: MERNDIINFKALEKELQAALTADEKYKRENAAKLRAVEQRVASYEEFRGIVLASHLKPLERKDKMGGKRTVPWNCHTIQGRTFQDVATEISPEKAPLQPETSADFYRDWRRHLPSGPERYQALLQLGGPRLGCLFQTDVGFGLLGELLVALADHVGPADRAAVLGILCSLASTGRFTLNLSLLSRAERESCKGLFQKLQAMGNPRSVKEGLSWEEQGLEEQSGGLQEEERLLQELLELYQVD
notes: CCDC103 (DNAAF19), human, UniProt Q8IW40, full length; or Sf9, Flag-tagged) stood in the strep pull-down, so the tag is left open; also called CCDC103FL; DNAAF19

binding result [2]: binds
B2: GST-tagged RBD domain of CCDC103 (domain or fragment, human, UniProt Q8IW40 100-242, looked up)
chain: ETSADFYRDWRRHLPSGPERYQALLQLGGPRLGCLFQTDVGFGLLGELLVALADHVGPADRAAVLGILCSLASTGRFTLNLSLLSRAERESCKGLFQKLQAMGNPRSVKEGLSWEEQGLEEQSGGLQEEERLLQELLELYQVD
notes: CCDC103, human, UniProt Q8IW40, RBD without the first 99 residues (lacks N-terminal 1-99); also called GST-CCDC103 RBD; source: E. coli Rosetta (DE3) pLysS (pGEX6-P1), purified (glutathione Sepharose 4B); not shown: GST, N-terminal, kept
